Experimental data: IntAct's records for PubMed 27284196

B1: Transcriptional regulator LdrP (Thermus thermophilus (strain HB8 / ATCC 27634 / DSM 579)), Q53W63 (parent)
chain: MKRFARKETIYLRGEEARTLYRLEEGLVRVVELLPDGRLITLRHVLPGDYFGEEALEGKAYRYTAEAMTEAVVQGLEPRAMDHEALHRVARNLARQMRRVQAYEAHLQTGELRARIARYLLFLADTPLSARDRQGIYVTVSHEEIADATASIRESVSKVLADLRREGLIATAYRRVYLLDLAALEREAGSALEAA
partner: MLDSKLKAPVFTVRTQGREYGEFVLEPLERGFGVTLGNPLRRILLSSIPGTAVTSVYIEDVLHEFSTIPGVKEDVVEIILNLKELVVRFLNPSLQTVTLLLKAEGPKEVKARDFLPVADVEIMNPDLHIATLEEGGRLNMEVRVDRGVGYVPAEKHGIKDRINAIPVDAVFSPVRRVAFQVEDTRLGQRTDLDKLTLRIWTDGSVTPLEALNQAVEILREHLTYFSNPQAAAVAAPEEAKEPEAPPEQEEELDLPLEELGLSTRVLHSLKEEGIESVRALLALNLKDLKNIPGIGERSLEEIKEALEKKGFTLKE

Variants of: B1
Conditions: with rpoa_thet8 rpoA

Row | Variant | effect of a mutation on the interaction
1 | MKRFARKETIYLRGEEARTLYRLEEGLVRVVELLPDGRLITLRHVLPGDYFGEEALEGKAYRYTAEAMTEAVVQGLEPRAMDHEALHRVARNLARQMRRVQAYEAHLQTGELRARIARYLLFLADTPLSARDRQGIYVTVSHEEIADATASIRESVSKVLADLRREGLIATAYRRVYLLDLAALKREAGSALEAA [E185K] | disrupting interaction strength
2 | MKRFARKETIYLRGEEARTLYRLEEGLVRVVELLPDGRLITLRHVLPGDYFGEEALEGKAYRYTAEAMTEAVVQGLEPRAMDHEALHRVARNLARQMRRVQAYEAHLQTGELRARIARYLLFLAKTPLSARDRQGIYVTVSHEEIADATASIRESVSKVLADLRREGLIATAYRRVYLLDLAALEREAGSALEAA [D125K] | disrupting interaction strength
